From the supplement of paper PMC5998384 come the findings set out here.

In data set [1] the test system is HeLa Kyoto. Put plainly: thermal stability score vs G1/S (z-score of summed log2 fold changes over temperatures); higher = more thermally stable than in G1/S.
The subject of data set [2] is HeLa Kyoto. The data set is described as follows: solubility change mitosis vs G1/S (difference of NP-40 vs SDS log2 ratios) (log2 ratio difference); higher = more soluble in mitosis.
The test system of data set [3] is HeLa Kyoto. The data set is described as follows: melting temperature (median over replicates), in situ; higher = more thermally stable.
Data set [4] concerns HeLa Kyoto. Put plainly: solubility in G1/S (NP-40 vs SDS abundance) (log2 ratio); higher = more soluble. The note with it: cell cycle stage: G1/S.
Setting [5] is: cell cycle stage: early G1 (4.5 h after nocodazole release).
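Wherever melting temperature (median over replicates), in situ is given: HeLa Kyoto cells synchronized by double thymidine or nocodazole block, proteins quantified by TMT10plex mass spectrometry, three independent biological replicates.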
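Wherever solubility change mitosis vs G1/S (difference of NP-40 vs SDS log2 ratios) is given: synchronized HeLa Kyoto cells (double thymidine block for G1/S, nocodazole release for mitosis), protein amounts in NP-40 versus SDS lysates quantified by mass spectrometry, three biological replicates.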
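Wherever solubility in G1/S (NP-40 vs SDS abundance) is given: HeLa Kyoto cells arrested at G1/S by double thymidine block, proteins quantified by TMT10plex mass spectrometry in mild NP-40 versus SDS extracts, three biological replicates.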
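Wherever thermal stability score vs G1/S (z-score of summed log2 fold changes over temperatures) is given: synchronized HeLa Kyoto cells, proteins quantified by TMT10plex mass spectrometry, three biological replicates, mitosis taken 0.5 h after nocodazole release, G1/S directly after double thymidine block.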

“MDLWPGAWMLLLLLFLLLLFLLPTLWFCSPSAKYFFKMAFYNGWILFLAVLAIPVCAVRGRNVENMKILRLMLLHIKYLYGIRVEVRGAHHFPPSQPYVVVSNHQSSLDLLGMMEVLPGRCVPIAKRELLWAGSAGLACWLAGVIFIDRKRTGDAISVMSEVAQTLLTQDVRVWVFPEGTRNHNGSMLPFKRGAFHLAVQAQVPIVPIVMSSYQDFYCKKERRFTSGQCQVRVLPPVPTEGLTPDDVPALADRVRHSMLTVFREISTDGRGGGDYLKKPGGGG [AGPAT1]”: the thermal stability score was found to be 0.708 in data set [1] (setting [5]) and 0.125 in data set [1] (cell cycle stage: mitosis). Besides, in data set [2], the “solubility change mitosis (log2)” value was determined as 0.0448. Also, the melting temperature is 53.3 °C in data set [3] (cell cycle stage: G1/S) and 52.7 °C in data set [3] (cell cycle stage: mitosis). For the same substance, in data set [4], the “solubility in G1/S (log2)” value is -0.318.

As for “MDMGNQHPSISRLQEIQKEVKSVEQQVIGFSGLSDDKNYKKLERILTKQLFEIDSVDTEGKGDIQQARKRAAQETERLLKELEQNANHPHRIEIQNIFEEAQSLVREKIVPFYNGGNCVTDEFEEGIQDIILRLTHVKTGGKISLRKARYHTLTKICAVQEIIEDCMKKQPSLPLSEDAHPSVAKINFVMCEVNKARGVLIALLMGVNNNETCRHLSCVLSGLIADLDALDVCGRTEIRNYRREVVEDINKLLKYLDLEEEADTTKAFDLRQNHSILKIEKVLKRMREIKNELLQAQNPSELYLSSKTELQGLIGQLDEVSLEKNPCIREARRRAVIEVQTLITYIDLKEALEKRKLFACEEHPSHKAVWNVLGNLSEIQGEVLSFDGNRTDKNYIRLEELLTKQLLALDAVDPQGEEKCKAARKQAVRLAQNILSYLDLKSDEWEY [BAG5]”, the figures for the thermal stability score in data set [1] (setting [5]) and in data set [1] (cell cycle stage: mitosis) were 1.27 and 1.14, respectively. In addition, in data set [2], the “solubility change mitosis (log2)” value was -0.166. The figures for the melting temperature in data set [3] (cell cycle stage: G1/S) and in data set [3] (cell cycle stage: mitosis) were 49.6 °C and 50.4 °C, respectively. In data set [4], the “solubility in G1/S (log2)” value is 0.621.

Take MDN1: the thermal stability score in data set [1] (setting [5]) is 0.349; in data set [1] (cell cycle stage: mitosis), 1.35. Moreover, the “solubility change mitosis (log2)” value in data set [2] amounted to 0.182. For the same substance, the melting temperature in data set [3] (cell cycle stage: G1/S) came to 51.1 °C; in data set [3] (cell cycle stage: mitosis), 50.5 °C. In addition, the “solubility in G1/S (log2)” value in data set [4] was -0.665.

Regarding “MDNMSITNTPTSNDACLSIVHSLMCHRQGGESETFAKRAIESLVKKLKEKKDELDSLITAITTNGAHPSKCVTIQRTLDGRLQVAGRKGFPHVIYARLWRWPDLHKNELKHVKYCQYAFDLKCDSVCVNPYHYERVVSPGIDLSGLTLQSNAPSSMMVKDEYVHDFEGQPSLSTEGHSIQTIQHPPSNRASTETYSTPALLAPSESNATSTANFPNIPVASTSQPASILGGSHSEGLLQIASGPQPGQQQNGFTGQPATYHHNSTTTWTGSRTAPYTPNLPHHQNGHLQHHPPMPPHPGHYWPVHNELAFQPPISNHPAPEYWCSIAYFEMDVQVGETFKVPSSCPIVTVDGYVDPSGGDRFCLGQLSNVHRTEAIERARLHIGKGVQLECKGEGDVWVRCLSDHAVFVQSYYLDREAGRAPGDAVHKIYPSAYIKVFDLRQCHRQMQQQAATAQAAAAAQAAAVAGNIPGPGSVGGIAPAISLSAAAGIGVDDLRRLCILRMSFVKGWGPDYPRQSIKETPCWIEIHLHRALQLLDEVLHTMPIADPQPLD [SMAD4]”, the thermal stability score in data set [1] (setting [5]) came out at 0.424; in data set [1] (cell cycle stage: mitosis), 0.695. In addition, the “solubility change mitosis (log2)” value in data set [2] is -0.03. Besides, the melting temperature in data set [3] (cell cycle stage: G1/S) is 51.3 °C; in data set [3] (cell cycle stage: mitosis), 50.9 °C. Further, in data set [4], the “solubility in G1/S (log2)” value was -0.0138.

As for “MDNSGKEAEAMALLAEAERKVKNSQSFFSGLFGGSSKIEEACEIYARAANMFKMAKNWSAAGNAFCQAAQLHLQLQSKHDAATCFVDAGNAFKKADPQEAINCLMRAIEIYTDMGRFTIAAKHHISIAEIYETELVDIEKAIAHYEQSADYYKGEESNSSANKCLLKVAGYAALLEQYQKAIDIYEQVGTNAMDSPLLKYSAKDYFFKAALCHFCIDMLNAKLAVQKYEELFPAFSDSRECKLMKKLLEAHEEQNVDSYTESVKEYDSISRLDQWLTTMLLRIKKTIQGDEEDLR [NAPA]”, the thermal stability score in data set [1] (setting [5]) was -0.447; in data set [1] (cell cycle stage: mitosis) it was -0.81. For the same substance, the “solubility change mitosis (log2)” value in data set [2] is 0.0471. The results for the melting temperature in data set [3] (cell cycle stage: G1/S) and in data set [3] (cell cycle stage: mitosis) were 51.7 °C and 52.2 °C, respectively. Moreover, the “solubility in G1/S (log2)” value in data set [4] is 0.324.

Take “MDPFLVLLHSVSSSLSSSELTELKFLCLGRVGKRKLERVQSGLDLFSMLLEQNDLEPGHTELLRELLASLRRHDLLRRVDDFEAGAAAGAAPGEEDLCAAFNVICDNVGKDWRRLARQLKVSDTKIDSIEDRYPRNLTERVRESLRIWKNTEKENATVAHLVGALRSCQMNLVADLVQEVQQARDLQNRSGAMSPMSWNSDASTSEAS [FADD]”: the thermal stability score in data set [1] (setting [5]) is -0.0741; in data set [1] (cell cycle stage: mitosis), 1.4. In addition, the “solubility change mitosis (log2)” value in data set [2] was -0.0735. Besides, the melting temperature in data set [3] (cell cycle stage: G1/S) amounted to 52.3 °C; in data set [3] (cell cycle stage: mitosis) it was 49.4 °C. Further, in data set [4], the “solubility in G1/S (log2)” value is -0.257.

With “MDPGDDWLVESLRLYQDFYAFDLSGATRVLEWIDDKGVFVAGYESLKKNEILHLKLPLRLSVKENKGLFPERDFKVRHGGFSDRSIFDLKHVPHTRLLVTSGLPGCYLQVWQVAEDSDVIKAVSTIAVHEKEESLWPRVAVFSTLAPGVLHGARLRSLQVVDLESRKTTYTSDVSDSEELSSLQVLDADTFAFCCASGRLGLVDTRQKWAPLENRSPGPGSGGERWCAEVGSWGQGPGPSIASLGSDGRLCLLDPRDLCHPVSSVQCPVSVPSPDPELLRVTWAPGLKNCLAISGFDGTVQVYDATSWDGTRSQDGTRSQVEPLFTHRGHIFLDGNGMDPAPLVTTHTWHPCRPRTLLSATNDASLHVWDWVDLCAPR [WDR73]”, the figures for the thermal stability score in data set [1] (setting [5]) and in data set [1] (cell cycle stage: mitosis) were 0.072 and 0.551, respectively. The “solubility change mitosis (log2)” value in data set [2] was -0.0847. Moreover, the results for the melting temperature in data set [3] (cell cycle stage: G1/S) and in data set [3] (cell cycle stage: mitosis) were 54.8 °C and 54 °C, respectively. For the same substance, the “solubility in G1/S (log2)” value in data set [4] was -0.0335.

Take “MDPRKVNELRAFVKMCKQDPSVLHTEEMRFLREWVESMGGKVPPATQKAKSEENTKEEKPDSKKVEEDLKADEPSSEESDLEIDKEGVIEPDTDAPQEMGDENAEITEEMMDQANDKKVAAIEALNDGELQKAIDLFTDAIKLNPRLAILYAKRASVFVKLQKPNAAIRDCDRAIEINPDSAQPYKWRGKAHRLLGHWEEAAHDLALACKLDYDEDASAMLKEVQPRAQKIAEHRRKYERKREEREIKERIERVKKAREEHERAQREEEARRQSGAQYGSFPGGFPGGMPGNFPGGMPGMGGGMPGMAGMPGLNEILSDPEVLAAMQDPEVMVAFQDVAQNPANMSKYQSNPKVMNLISKLSAKFGGQA [ST13]”: the figures for the thermal stability score in data set [1] (setting [5]) and in data set [1] (cell cycle stage: mitosis) were 2.23 and 1.79, respectively. Besides, the “solubility change mitosis (log2)” value in data set [2] came out at 0.103. The melting temperature in data set [3] (cell cycle stage: G1/S) is 51.8 °C; in data set [3] (cell cycle stage: mitosis), 51.3 °C. Moreover, in data set [4], the “solubility in G1/S (log2)” value amounted to 0.813.
